Data as given in patent US20240101673A1 (MOZART THERAPEUTICS, published 2024).
Values belong to the binder of their own block, whether it stands above or below them.

Key:
[1] = target: CD8 (Homo sapiens); test: titration on the CXCR3 CD39 CD8 T cell subset, gMFI (flow cytometry)
[2] = target: CD8 (Homo sapiens); test: titration on CD8+ T cells, gMFI (flow cytometry)
[3] = target: T1, KIR2DL1 tagged with a hexahistidine peptide (UniProt P43626 22-245, limits assumed); test: BLI (Octet), CrossMAb captured on AHC anti-human Fc biosensors, analyte 6.25-200 nM
T1 construct: Soluble analyte in the Octet assays; also called KIRDL1; not shown: hexahistidine tag (HHHHHH)

[4] = target: T2, KIR2DL3 tagged with a hexahistidine peptide (UniProt P43628 22-245, limits assumed); test: as above
T2 construct: Soluble analyte in the Octet assays; not shown: hexahistidine tag (HHHHHH)

[5] = target: T3, CD8alpha tagged with a hexahistidine peptide (UniProt P01732 22-182, limits assumed); test: as above
T3 construct: Soluble analyte in the Octet assays; not shown: hexahistidine tag (HHHHHH)

[6] = target: T3, CD8alpha tagged with a hexahistidine …; test: BLI (Octet), antibody captured on AHC anti-human Fc biosensors, analyte 6.25-200 nM
Experimental: The affinities of the parental antibodies anti-KIR2DL1/L2/L3 IPH2102 IgG1 r mAb and anti-CD8alpha Mb1 b IgG1r mAb were also analyzed. For kinetic analysis, the parental antibodies were separately captured to AHC (anti-human Fc) biosensors using a load concentration of 1.25 ug/ml. For IPH2102 IgG1r mAb, the KIR2DL1, or KIR2DL3 analytes ranged from 6.25 nM to 200 nM. Analyte binding following capture was analyzed first for association of KIR2DL1 or KIR2DL3 followed by the dissociation of each analyte independently. Likewise, for the Mb1b IgG1r mAb, the CD8alpha analyte ranged from 6.25 nM to 200 nM. Analyte binding following capture was analyzed first for association followed by the dissociation of CD8alpha.

Sequence of CD8 (Homo sapiens) (chain, as listed by the source): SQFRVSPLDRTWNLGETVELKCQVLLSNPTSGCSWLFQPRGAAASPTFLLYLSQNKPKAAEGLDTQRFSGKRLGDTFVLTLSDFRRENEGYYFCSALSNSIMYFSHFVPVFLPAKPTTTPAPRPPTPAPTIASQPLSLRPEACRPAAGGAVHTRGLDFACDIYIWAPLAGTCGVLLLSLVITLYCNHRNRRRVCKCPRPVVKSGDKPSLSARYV
T3 sequence (P01732 22-182 limits assumed): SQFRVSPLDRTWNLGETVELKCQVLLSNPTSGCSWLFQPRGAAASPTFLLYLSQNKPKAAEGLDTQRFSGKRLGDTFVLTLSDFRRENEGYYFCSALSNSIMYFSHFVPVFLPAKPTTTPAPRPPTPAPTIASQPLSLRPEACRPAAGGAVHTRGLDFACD
T2 sequence (P43628 22-245 limits assumed): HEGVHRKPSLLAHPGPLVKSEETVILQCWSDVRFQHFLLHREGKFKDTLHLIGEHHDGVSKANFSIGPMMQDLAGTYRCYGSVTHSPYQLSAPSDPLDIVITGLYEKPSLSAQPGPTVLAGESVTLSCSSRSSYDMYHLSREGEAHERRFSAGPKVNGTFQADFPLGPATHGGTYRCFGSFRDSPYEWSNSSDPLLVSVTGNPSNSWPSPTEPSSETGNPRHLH
T1 sequence (P43626 22-245 limits assumed): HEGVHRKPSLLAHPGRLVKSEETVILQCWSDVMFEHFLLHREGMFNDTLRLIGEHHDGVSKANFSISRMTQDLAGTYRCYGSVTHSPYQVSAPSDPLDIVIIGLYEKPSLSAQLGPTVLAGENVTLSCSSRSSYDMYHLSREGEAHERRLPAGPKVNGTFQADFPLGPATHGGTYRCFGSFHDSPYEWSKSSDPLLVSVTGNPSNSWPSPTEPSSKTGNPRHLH

EC50 (read off the curve) [1]: ~100 nM | EC50 (read off the curve) [2]: ~40 nM
B1: KIR2DLxCD8 bispecific (bispecific antibody)
chain 1: QVQLVQSGAEVKKPGSSVKVSCKASGGTFSFYAISWVRQAPGQGLEWMGGFIPIFGAANYAQKFQGRVTITADESTSTAYMELSSLRSDDTAVYYCARIPSGSYYYDYDMDVWGQGTTVTVSS
chain 2: EIVLTQSPVTLSLSPGERATLSCRASQSVSSYLAWYQQKPGQAPRLLIYDASNRATGIPARFSGSGSGTDFTLTISSLEPEDFAVYYCQQRSNWMYTFGQGTKLEIK
chain 3: EVQLVESGGGLVQPGGSLRLSCAASGFNIKDTYIHFVRQAPGKGLEWIGRIDPANDNTLYASKFQGKATISADTSKNTAYLQMNSLRAEDTAVYYCGRGYGYYVFDHWGQGTLVTVSS
chain 4: DVQITQSPSSLSASVGDRVTITCRTSRSISQYLAWYQQKPGKVPKLLIYSGSTLQSGVPSRFSGSGSGTDFTLTISSLQPEDVATYYCQQHNENPLTFGGGTKVEIK

Kd [3]: 1.52 nM | Kd [4]: 0.88 nM | Kd [5]: 2.07 nM
B2: IPH2102/Mb1b CrossMAb (bispecific antibody)
chain 1: QVQLVQSGAEVKKPGSSVKVSCKASGGTFSFYAISWVRQAPGQGLEWMGGFIPIFGAANYAQKFQGRVTITADESTSTAYMELSSLRSDDTAVYYCARIPSGSYYYDYDMDVWGQGTTVTVSS
chain 2: EIVLTQSPVTLSLSPGERATLSCRASQSVSSYLAWYQQKPGQAPRLLIYDASNRATGIPARFSGSGSGTDFTLTISSLEPEDFAVYYCQQRSNWMYTFGQGTKLEIK
chain 3: EVQLVESGGGLVQPGGSLRLSCAASGFNIKDTYIHFVRQAPGKGLEWIGRIDPANDNTLYASKFQGKATISADTSKNTAYLQMNSLRAEDTAVYYCGRGYGYYVFDHWGQGTLVTVSS
chain 4: DVQITQSPSSLSASVGDRVTITCRTSRSISQYLAWYQQKPGKVPKLLIYSGSTLQSGVPSRFSGSGSGTDFTLTISSLQPEDVATYYCQQHNENPLTFGGGTKVEIK

Kd [6]: 2.6 nM
B3: Mb1b IgG1 r mAb (antibody, V domains shown)
VH: EVQLVESGGGLVQPGGSLRLSCAASGFNIKDTYIHFVRQAPGKGLEWIGRIDPANDNTLYASKFQGKATISADTSKNTAYLQMNSLRAEDTAVYYCGRGYGYYVFDHWGQGTLVTVSS
VL: DVQITQSPSSLSASVGDRVTITCRTSRSISQYLAWYQQKPGKVPKLLIYSGSTLQSGVPSRFSGSGSGTDFTLTISSLQPEDVATYYCQQHNENPLTFGGGTKVEIK
notes: also called Mb1b parental antibody; anti-CD8alpha Mb1 b IgG1r mAb
